# Assay results from US20240018502.
# T1: quenched fluorescence peptidic substrate containing SKGR/SL (P4-P2' of the PAR-2 activation cleavage site, Ser 33 to Leu 38)
# T1 chain: SKGRSL
# Key:
# [1] = target: human complement protein C3
# [2] = target: T1, quenched fluorescence peptidic …
# [3] = target: complement protein C3 of cynomolgus monkey plasma
Protein,"ED50 80% human plasma (60 min, nM), C3 cleavage [1]",SKGR/SL kcat/Km [2],"ED50 80% cynomolgus plasma (nM), C3 cleavage, C3 ELISA [3]",other results
I41R/F97T/Ins97aE/T98G/F99L/C122S/G151N/Q175L/Q192E (protein) VVGGTDADEGEWPWQVSLHALGQGHRCGASLISPNWLVSAAHCYIDDRGFRYSDPTQWTAFLGLHDQSQRSAPGVQERRLKRIISHPFFNDTEGLDYDIALLELEKPAEYSSMVRPISLPDASHVFPAGKAIWVTGWGHTQYGGTNALILQKGEIRVINQTTCENLLPQLITPRMMCVGFLSGGVDSCEGDSGGPLSSVEADGRIFQAGVVSWGDGCAQRNKPGVYTRLPLFRDWIKENTGV,835 nM,< 100 M⁻¹ s⁻¹,2200 nM,–
Q38H/I41A/D60bV/F60eR/Y60gW/D96P/F97W/ins97aN/T98G/F99L/C122S/G151N/Q175L/Q192E (protein) VVGGTDADEGEWPWQVSLHALGHGHACGASLISPNWLVSAAHCYIDVRGRRWSDPTQWTAFLGLHDQSQRSAPGVQERRLKRIISHPFFNPWNGLDYDIALLELEKPAEYSSMVRPISLPDASHVFPAGKAIWVTGWGHTQYGGTNALILQKGEIRVINQTTCENLLPQLITPRMMCVGFLSGGVDSCEGDSGGPLSSVEADGRIFQAGVVSWGDGCAQRNKPGVYTRLPLFRDWIKENTGV,47 nM,1620 M⁻¹ s⁻¹,73 nM,–
Q38H/I41S/D60bT/F60eS/Y60gW/D96Y/F97E/ins97aV/T98G/F99L/C122S/G151H/Q175L/Q192D (protein) VVGGTDADEGEWPWQVSLHALGHGHSCGASLISPNWLVSAAHCYIDTRGSRWSDPTQWTAFLGLHDQSQRSAPGVQERRLKRIISHPFFNYEVGLDYDIALLELEKPAEYSSMVRPISLPDASHVFPAGKAIWVTGWGHTQYGGTHALILQKGEIRVINQTTCENLLPQLITPRMMCVGFLSGGVDSCDGDSGGPLSSVEADGRIFQAGVVSWGDGCAQRNKPGVYTRLPLFRDWIKENTGV,38 nM,865 M⁻¹ s⁻¹,133 nM,–
Q38H/I41S/D60bT/F60eS/Y60gW/F97D/ins97aV/T98P/F99L/C122S/G151N/Q175L/Q192D (protein) VVGGTDADEGEWPWQVSLHALGHGHSCGASLISPNWLVSAAHCYIDTRGSRWSDPTQWTAFLGLHDQSQRSAPGVQERRLKRIISHPFFNDDVPLDYDIALLELEKPAEYSSMVRPISLPDASHVFPAGKAIWVTGWGHTQYGGTNALILQKGEIRVINQTTCENLLPQLITPRMMCVGFLSGGVDSCDGDSGGPLSSVEADGRIFQAGVVSWGDGCAQRNKPGVYTRLPLFRDWIKENTGV,41 nM,1730 M⁻¹ s⁻¹,118 nM,–
Q38H/I41A/D60bT/F60eK/Y60gW/F97T/ins97aE/T98G/F99L/C122S/G151H/Q175L/Q192D (protein) VVGGTDADEGEWPWQVSLHALGHGHACGASLISPNWLVSAAHCYIDTRGKRWSDPTQWTAFLGLHDQSQRSAPGVQERRLKRIISHPFFNDTEGLDYDIALLELEKPAEYSSMVRPISLPDASHVFPAGKAIWVTGWGHTQYGGTHALILQKGEIRVINQTTCENLLPQLITPRMMCVGFLSGGVDSCDGDSGGPLSSVEADGRIFQAGVVSWGDGCAQRNKPGVYTRLPLFRDWIKENTGV,38 nM,742 M⁻¹ s⁻¹,136 nM,–
Q38H/I41A/D60bV/F60eR/Y60gW/F97T/ins97aE/T98G/F99L/C122S/G151N/Q175L/Q192D (protein) VVGGTDADEGEWPWQVSLHALGHGHACGASLISPNWLVSAAHCYIDVRGRRWSDPTQWTAFLGLHDQSQRSAPGVQERRLKRIISHPFFNDTEGLDYDIALLELEKPAEYSSMVRPISLPDASHVFPAGKAIWVTGWGHTQYGGTNALILQKGEIRVINQTTCENLLPQLITPRMMCVGFLSGGVDSCDGDSGGPLSSVEADGRIFQAGVVSWGDGCAQRNKPGVYTRLPLFRDWIKENTGV,52 nM,925 M⁻¹ s⁻¹,101 nM,–
Q38H/I41A/D60bV/F60eR/Y60gW/D96I/F97Y/ins97aN/T98G/F99L/C122S/G151N/Q175L/Q192D (protein) VVGGTDADEGEWPWQVSLHALGHGHACGASLISPNWLVSAAHCYIDVRGRRWSDPTQWTAFLGLHDQSQRSAPGVQERRLKRIISHPFFNIYNGLDYDIALLELEKPAEYSSMVRPISLPDASHVFPAGKAIWVTGWGHTQYGGTNALILQKGEIRVINQTTCENLLPQLITPRMMCVGFLSGGVDSCDGDSGGPLSSVEADGRIFQAGVVSWGDGCAQRNKPGVYTRLPLFRDWIKENTGV,27 nM,2320 M⁻¹ s⁻¹,37 nM,–
Q38H/I41S/D60bT/F60eS/Y60gW/F97D/ins97aV/T98P/F99L/C122S/G151H/Q175L/Q192D (protein) VVGGTDADEGEWPWQVSLHALGHGHSCGASLISPNWLVSAAHCYIDTRGSRWSDPTQWTAFLGLHDQSQRSAPGVQERRLKRIISHPFFNDDVPLDYDIALLELEKPAEYSSMVRPISLPDASHVFPAGKAIWVTGWGHTQYGGTHALILQKGEIRVINQTTCENLLPQLITPRMMCVGFLSGGVDSCDGDSGGPLSSVEADGRIFQAGVVSWGDGCAQRNKPGVYTRLPLFRDWIKENTGV,50 nM,1730 M⁻¹ s⁻¹,152 nM,–
Q38H/I41A/D60bT/F60eK/Y60gW/F97T/ins97aE/T98G/F99L/C122S/G151N/Q175L/Q192D (protein) VVGGTDADEGEWPWQVSLHALGHGHACGASLISPNWLVSAAHCYIDTRGKRWSDPTQWTAFLGLHDQSQRSAPGVQERRLKRIISHPFFNDTEGLDYDIALLELEKPAEYSSMVRPISLPDASHVFPAGKAIWVTGWGHTQYGGTNALILQKGEIRVINQTTCENLLPQLITPRMMCVGFLSGGVDSCDGDSGGPLSSVEADGRIFQAGVVSWGDGCAQRNKPGVYTRLPLFRDWIKENTGV,65 nM,245 M⁻¹ s⁻¹,195 nM,–
Q38H/I41S/D60bT/F60eS/Y60gW/D96L/F97D/ins97aG/T98N/F99L/C122S/G151H/Q175L/Q192E (protein) VVGGTDADEGEWPWQVSLHALGHGHSCGASLISPNWLVSAAHCYIDTRGSRWSDPTQWTAFLGLHDQSQRSAPGVQERRLKRIISHPFFNLDGNLDYDIALLELEKPAEYSSMVRPISLPDASHVFPAGKAIWVTGWGHTQYGGTHALILQKGEIRVINQTTCENLLPQLITPRMMCVGFLSGGVDSCEGDSGGPLSSVEADGRIFQAGVVSWGDGCAQRNKPGVYTRLPLFRDWIKENTGV,39 nM,1300 M⁻¹ s⁻¹,70 nM,–
Q38H/I41A/D60bV/F60eR/Y60gW/F97T/ins97aE/T98G/F99L/C122S/G151H/Q175L/Q192D (protein) VVGGTDADEGEWPWQVSLHALGHGHACGASLISPNWLVSAAHCYIDVRGRRWSDPTQWTAFLGLHDQSQRSAPGVQERRLKRIISHPFFNDTEGLDYDIALLELEKPAEYSSMVRPISLPDASHVFPAGKAIWVTGWGHTQYGGTHALILQKGEIRVINQTTCENLLPQLITPRMMCVGFLSGGVDSCDGDSGGPLSSVEADGRIFQAGVVSWGDGCAQRNKPGVYTRLPLFRDWIKENTGV,32 nM,1360 M⁻¹ s⁻¹,133 nM,–
Q38H/I41S/D60bT/F60eS/Y60gW/F97D/ins97aV/T98P/F99L/C122S/G151H/Q175L/Q192E (protein) VVGGTDADEGEWPWQVSLHALGHGHSCGASLISPNWLVSAAHCYIDTRGSRWSDPTQWTAFLGLHDQSQRSAPGVQERRLKRIISHPFFNDDVPLDYDIALLELEKPAEYSSMVRPISLPDASHVFPAGKAIWVTGWGHTQYGGTHALILQKGEIRVINQTTCENLLPQLITPRMMCVGFLSGGVDSCEGDSGGPLSSVEADGRIFQAGVVSWGDGCAQRNKPGVYTRLPLFRDWIKENTGV,50 nM,959 M⁻¹ s⁻¹,76 nM,–
Q38H/I41S/D60bT/F60eS/Y60gW/D96K/F97D/ins97aA/T98P/F99L/C122S/G151H/Q175L/Q192D (protein) VVGGTDADEGEWPWQVSLHALGHGHSCGASLISPNWLVSAAHCYIDTRGSRWSDPTQWTAFLGLHDQSQRSAPGVQERRLKRIISHPFFNKDAPLDYDIALLELEKPAEYSSMVRPISLPDASHVFPAGKAIWVTGWGHTQYGGTHALILQKGEIRVINQTTCENLLPQLITPRMMCVGFLSGGVDSCDGDSGGPLSSVEADGRIFQAGVVSWGDGCAQRNKPGVYTRLPLFRDWIKENTGV,34 nM,4030 M⁻¹ s⁻¹,85 nM,–
Q38H/I41S/D60bT/F60eS/Y60gW/D96K/F97G/ins97aV/T98P/F99L/C122S/G151H/Q175L/Q192D (protein) VVGGTDADEGEWPWQVSLHALGHGHSCGASLISPNWLVSAAHCYIDTRGSRWSDPTQWTAFLGLHDQSQRSAPGVQERRLKRIISHPFFNKGVPLDYDIALLELEKPAEYSSMVRPISLPDASHVFPAGKAIWVTGWGHTQYGGTHALILQKGEIRVINQTTCENLLPQLITPRMMCVGFLSGGVDSCDGDSGGPLSSVEADGRIFQAGVVSWGDGCAQRNKPGVYTRLPLFRDWIKENTGV,25 nM,6210 M⁻¹ s⁻¹,92 nM,"C3H50 Hemolytic Activity (U/mL), C3-depleted serum plus purified C3; Test Condition #1 (C3 and 8 nM test article incubated separately, no pre-cleavage) [1]: 470 U/mL; C3H50 Hemolytic Activity (U/mL), C3-depleted serum plus purified C3; Test Condition #1 (C3 and 40 nM test article incubated separately, no pre-cleavage) [1]: 594 U/mL; C3H50 Hemolytic Activity (U/mL), C3-depleted serum plus purified C3; Test Condition #1 (C3 and 200 nM test article incubated separately, no pre-cleavage) [1]: 438 U/mL; C3H50 Hemolytic Activity (U/mL), C3-depleted serum plus purified C3; Test Condition #2 (C3 pre-incubated 2 h at 37 C with 8 nM test article) [1]: 295 U/mL; C3H50 Hemolytic Activity (U/mL), C3-depleted serum plus purified C3; Test Condition #2 (C3 pre-incubated 2 h at 37 C with 40 nM test article) [1]: 97.9 U/mL; C3H50 Hemolytic Activity (U/mL), C3-depleted serum plus purified C3; Test Condition #2 (C3 pre-incubated 2 h at 37 C with 200 nM test article) [1]: 73.7 U/mL; CH50 hemolytic activity (U/mL), human citrated plasma after 1 h at 37 C with 3.2 nM test article [1]: 73 U/mL; CH50 hemolytic activity (U/mL), human citrated plasma after 1 h at 37 C with 16 nM test article [1]: 69 U/mL; CH50 hemolytic activity (U/mL), human citrated plasma after 1 h at 37 C with 80 nM test article [1]: 41.5 U/mL; CH50 hemolytic activity (U/mL), human citrated plasma after 1 h at 37 C with 400 nM test article [1]: 10.8 U/mL; CH50 hemolytic activity (U/mL), human citrated plasma after 1 h at 37 C with 2000 nM test article [1]: 5.56 U/mL"
Wild-type MTSP-1 protease domain with C122S (protein) VVGGTDADEGEWPWQVSLHALGQGHICGASLISPNWLVSAAHCYIDDRGFRYSDPTQWTAFLGLHDQSQRSAPGVQERRLKRIISHPFFNDFTFDYDIALLELEKPAEYSSMVRPISLPDASHVFPAGKAIWVTGWGHTQYGGTGALILQKGEIRVINQTTCENLLPQQITPRMMCVGFLSGGVDSCQGDSGGPLSSVEADGRIFQAGVVSWGDGCAQRNKPGVYTRLPLFRDWIKENTGV,3500 nM,200000 M⁻¹ s⁻¹,2800 nM,ED50 of cleavage of human C3 [1]: compared to 11 nM for the wild-type protease domain of SEQ ID NO:4
Q38H/I41A/D60bV/F60eR/Y60gW/D96I/F97N/T98G/F99L/C122S/G151N/Q175L/Q192D (protein) VVGGTDADEGEWPWQVSLHALGHGHACGASLISPNWLVSAAHCYIDVRGRRWSDPTQWTAFLGLHDQSQRSAPGVQERRLKRIISHPFFNINGLDYDIALLELEKPAEYSSMVRPISLPDASHVFPAGKAIWVTGWGHTQYGGTNALILQKGEIRVINQTTCENLLPQLITPRMMCVGFLSGGVDSCDGDSGGPLSSVEADGRIFQAGVVSWGDGCAQRNKPGVYTRLPLFRDWIKENTGV,24 nM,3560 M⁻¹ s⁻¹,58 nM,–
